Reference: publication PMC8722602 (bioRxiv, 2021)

B1: Clone 6 (recombinant mAb, mouse variable regions on human IgG1) (antibody, V domains shown)
VH: QVQLQQSAAELARPGASVKMSCKASGYTFTSYTMHWVKQRPGQGLEWIGYINPTSGYTEYNQNFKDKTTLTADKSSSTAYMQLNSLTSEDSAVYYCAREGHRVGPAYWGQGTLVTVSA
VL: not shown
B2: Clone 2 (recombinant mAb, mouse variable regions on human IgG1) (antibody, V domains shown)
VH: EVQLQQSGPELVKPGASVKISCKASGYSFTGYSMNWMKQSPEKSLEWIGEINPSTGGTTDNQKFKAKATLTVDKSSSTAYMQLKSLTSEDSAVYYCARSRGDYWGQGTSVTVSS
VL: DIVLTQSPASLAVSLGQRATISCRASESVEYYGTSLMQWYQQKPGQPPKVLIYAASNVESGVPARFSGSGSGTDFSLNIHPVEEDDIAMYFCQQSRKVPWTFGGGTKLEIK

Target: SARS-CoV-2 RBD-his tag protein (SARS-CoV-2, ancestral (Wuhan-Hu-1/WA1), UniProt P0DTC2)
Assay: ELISA

Binder | binding result
B1 | binds
B2 | binds
